{"source": "paper PMC9279676", "about": "“ERK2 MAP kinase regulates SUFU binding by multisite phosphorylation of GLI1” (Life Science Alliance, 2022)", "binders": {"B1": {"name": "full-length human SUFU protein, 35S-radiolabeled (natural protein, UniProt Q9UMX1-1 1-484, looked up)", "chain": "MAELRPSGAPGPTAPPAPGPTAPPAFASLFPPGLHAIYGECRRLYPDQPNPLQVTAIVKYWLGGPDPLDYVSMYRNVGSPSANIPEHWHYISFGLSDLYGDNRVHEFTGTDGPSGFGFELTFRLKRETGESAPPTWPAELMQGLARYVFQSENTFCSGDHVSWHSPLDNSESRIQHMLLTEDPQMQPVQTPFGVVTFLQIVGVCTEELHSAQQWNGQGILELLRTVPIAGGPWLITDMRRGETIFEIDPHLQERVDKGIETDGSNLSGVSAKCAWDDLSRPPEDDEDSRSICIGTQPRRLSGKDTEQIRETLRRGLEINSKPVLPPINPQRQNGLAHDRAPSRKDSLESDSSTAIIPHELIRTRQLESVHLKFNQESGALIPLCLRGRLLHGRHFTYKSITGDMAITFVSTGVEGAFATEEHPYAAHGPWLQILLTEEFVEKMLEDLEDLTSPEEFKLPKEYSWPEKKLKVSILPDVVFDSPLH", "modifications": "[35S]-methionine label", "notes": "human SUFU, full length, residues 1-484, from plasmid pGEM4Z-SUFU; also called 35S-SUFU; radiolabeled SUFU; source: in vitro transcription and translation (SP6, Promega), partially purified by ammonium sulfate precipitation"}}, "key": {"[1]": {"molecular_target": "T1, GST-GLI1^S102,S116 (GST-GLI1_(68-232), only S102 and S116 intact), mock treated (human, UniProt P08151-1 68-232, S70A | S86A | S130A | S146A | S201A)", "T1 sequence": "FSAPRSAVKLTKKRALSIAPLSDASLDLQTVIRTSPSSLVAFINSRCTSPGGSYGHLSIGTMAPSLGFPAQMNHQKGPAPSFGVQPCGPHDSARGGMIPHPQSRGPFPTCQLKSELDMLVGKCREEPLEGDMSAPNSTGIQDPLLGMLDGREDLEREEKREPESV", "test": "mock treated"}, "[2]": {"molecular_target": "T2, GST-GLI1^S116,S130 (GST-GLI1_(68-232), only S116 and S130 intact), mock treated (human, UniProt P08151-1 68-232, S70A | S86A | S102A | S146A | S201A)", "T2 sequence": "T1 sequence with S35A, A63S", "test": "mock treated"}, "[3]": {"molecular_target": "phosphorylated single and double-phosphosite mutants", "test": "pull-down; purified GST-GLI1_(68-232) variants (mock treated or ERK2 phosphorylated), 0 or 1.25-80 nM, on glutathione-Sepharose beads; ∼1 pmol 35S-SUFU in 200 μl; 15 min at 30°C, then 1 h at room temperature; Binding Buffer (20 mM Tris-HCl pH 7.5, 125 mM KOAc, 0.5 mM EDTA, 5 mM DTT, 0.1% Tween20, 12.5% glycerol) + 1 mg/ml BSA; bound SUFU quantified by SDS-PAGE and Phosphorimager; Kd from binding isotherms"}, "[4]": {"molecular_target": "the three “two sites only”-intact mutants, ERK2-phosphorylated", "test": "pull-down; purified GST-GLI1_(68-232) variants (mock treated or ERK2 phosphorylated), 0 or 1.25-80 nM, on glutathione-Sepharose beads; ∼1 pmol 35S-SUFU in 200 μl; 15 min at 30°C, then 1 h at room temperature; Binding Buffer (20 mM Tris-HCl pH 7.5, 125 mM KOAc, 0.5 mM EDTA, 5 mM DTT, 0.1% Tween20, 12.5% glycerol) + 1 mg/ml BSA; bound SUFU quantified by SDS-PAGE and Phosphorimager; Kd from binding isotherms"}, "[5]": {"molecular_target": "T3, GST-GLI1^S130, phosphorylated by ERK2 (human, UniProt P08151-1 68-232, S70A | S86A | S102A | S116A | S146A | S201A, phosphorylated by ERK2; only intact SP site S130)", "T3 sequence": "T1 sequence with S35A, S49A, A63S", "test": "GLI1 phosphorylated by ERK2"}, "[6]": {"molecular_target": "T4, GST-GLI1^S116, phosphorylated by ERK2 (human, UniProt P08151-1 68-232, S70A | S86A | S102A | S130A | S146A | S201A, phosphorylated by ERK2; only intact SP site S116)", "T4 sequence": "T1 sequence with S35A", "test": "GLI1 phosphorylated by ERK2"}, "[7]": {"molecular_target": "T5, GST-GLI1^S116,S130, phosphorylated by ERK2 (human, UniProt P08151-1 68-232, S70A | S86A | S102A | S146A | S201A, phosphorylated by ERK2; intact SP sites S116, S130)", "T5 sequence": "T1 sequence with S35A, A63S", "test": "GLI1 phosphorylated by ERK2"}, "[8]": {"molecular_target": "T6, GST-GLI1^S130, phosphorylated by ERK2 (human, UniProt P08151-1 68-232, S70A | S86A | S102A | S116A | S146A | S201A, phosphorylated by ERK2; only intact SP site S130)", "T6 construct": "only the SP site S130 intact; also called ERK2-treated GLI1^S130; source: bacteria, purified (glutathione-Sepharose); then phosphorylated with purified active ERK2", "T6 sequence (looked up)": "T1 sequence with S35A, S49A, A63S", "test": "pull-down; purified GST-GLI1_(68-232) variants (mock treated or ERK2 phosphorylated), 0 or 1.25-80 nM, on glutathione-Sepharose beads; ∼1 pmol 35S-SUFU in 200 μl; 15 min at 30°C, then 1 h at room temperature; Binding Buffer (20 mM Tris-HCl pH 7.5, 125 mM KOAc, 0.5 mM EDTA, 5 mM DTT, 0.1% Tween20, 12.5% glycerol) + 1 mg/ml BSA; bound SUFU quantified by SDS-PAGE and Phosphorimager; Kd from binding isotherms", "settings": "one partner purified"}, "[9]": {"molecular_target": "T7, GST-GLI1^S116, phosphorylated by ERK2 (human, UniProt P08151-1 68-232, S70A | S86A | S102A | S130A | S146A | S201A, phosphorylated by ERK2; only intact SP site S116)", "T7 construct": "only the SP site S116 intact; also called ERK2-treated GLI1^S116; source: bacteria, purified (glutathione-Sepharose); then phosphorylated with purified active ERK2", "T7 sequence (looked up)": "T1 sequence with S35A", "test": "pull-down; purified GST-GLI1_(68-232) variants (mock treated or ERK2 phosphorylated), 0 or 1.25-80 nM, on glutathione-Sepharose beads; ∼1 pmol 35S-SUFU in 200 μl; 15 min at 30°C, then 1 h at room temperature; Binding Buffer (20 mM Tris-HCl pH 7.5, 125 mM KOAc, 0.5 mM EDTA, 5 mM DTT, 0.1% Tween20, 12.5% glycerol) + 1 mg/ml BSA; bound SUFU quantified by SDS-PAGE and Phosphorimager; Kd from binding isotherms", "settings": "one partner purified"}, "[10]": {"molecular_target": "T8, GST-GLI1_(68-232), wild type, phosphorylated by ERK2 (human, UniProt P08151-1 68-232, phosphorylated by ERK2 to ∼3 mol phosphate per mole; most efficient sites Ser116 and Ser130, followed by Ser102 and Ser201)", "T8 construct": "vector pGEX-LB; also called ERK2-phosphorylated GLI1; WT + ERK2; source: bacteria, purified (glutathione-Sepharose); then phosphorylated with purified active ERK2 (2 h, 30°C)", "T8 sequence (looked up)": "T1 sequence with A3S, A19S, A63S, A79S, A134S", "test": "pull-down; purified GST-GLI1_(68-232) variants (mock treated or ERK2 phosphorylated), 0 or 1.25-80 nM, on glutathione-Sepharose beads; ∼1 pmol 35S-SUFU in 200 μl; 15 min at 30°C, then 1 h at room temperature; Binding Buffer (20 mM Tris-HCl pH 7.5, 125 mM KOAc, 0.5 mM EDTA, 5 mM DTT, 0.1% Tween20, 12.5% glycerol) + 1 mg/ml BSA; bound SUFU quantified by SDS-PAGE and Phosphorimager; Kd from binding isotherms", "settings": "one partner purified"}}, "note": "Residue numbers refer to the chain shown, from its start."}
{"binder": "B1", "values": [{"measurement": "Kd", "setting": "[1]", "value": 6, "unit": "nM"}, {"measurement": "Kd", "setting": "[2]", "value": 11, "unit": "nM"}, {"measurement": "Kd", "setting": "[3]", "value": 53, "unit": "nM"}, {"measurement": "fold increase of Kd after ERK2-mediated phosphorylation", "setting": "[4]", "value": "4.8 to 8.3", "unit": "fold"}, {"measurement": "Kd", "setting": "[5]", "value": 16, "unit": "nM"}, {"measurement": "Kd", "setting": "[6]", "value": 36, "unit": "nM"}, {"measurement": "Kd", "setting": "[7]", "value": 53, "unit": "nM"}, {"measurement": "fold reduction in affinity after ERK2 treatment", "setting": "[8]", "value": 1.3, "unit": "fold"}, {"measurement": "fold increase of Kd upon phosphorylation", "setting": "[9]", "value": 2.6, "unit": "fold"}, {"measurement": "fold increase of Kd against unphosphorylated GLI1", "setting": "[10]", "value": "~30", "unit": "fold"}, {"measurement": "fold weakening of Kd against unphosphorylated GLI1", "setting": "[10]", "value": "> 30", "unit": "fold"}]}
